Reference: article PMC9162458

Tests used:
[1] = target: LiRAD51^ATPase (Leishmania infantum RAD51 ATPase domain, residues 134–386) (Leishmania infantum); test: ITC; LiBRC1 peptide in the syringe, LiRAD51^ATPase in the cell; 25°C; 20 mM Tris pH 8.0, 150 mM NaCl, 100 mM Li2SO4; single-site binding model
[2] = target: Fluor-NCys-LiBRC1 probe (Leishmania infantum); test: fluorescence polarisation; direct titration: LiRAD51^ATPase in two-fold serial dilutions into 5 nM Fluor-NCys-LiBRC1 probe; 50 mM Tris pH 8.0, 150 mM NaCl, 100 mM Li2SO4, 1% BSA, 0.1% Tween-20
[3] = target: LiRAD51^ATPase (Leishmania infantum RAD51 ATPase domain, residues 134–386) (Leishmania infantum); test: fluorescence polarisation; competition: 5 nM Fluor-NCys-LiBRC1 probe with 500 nM LiRAD51^ATPase, GB1-LiBRC repeats in serial dilutions; KD estimated from the fitted IC50; 50 mM Tris pH 8.0, 150 mM NaCl, 100 mM Li2SO4, 1% BSA, 0.1% Tween-20

| Substance | Kd [3] [µM] | also measured |
| --- | --- | --- |
| LiBRC1 free peptide | – | Kd [1]: 0.65 µM |
| LiRAD51^ATPase (Leishmania infantum RAD51 ATPase domain, residues 134–386) (domain or fragment) | – | Kd [2]: 0.165 µM |
| GB1-LiBRC1-His8 (BRC repeat 1 of Leishmania infantum BRCA2 fused to GB1) (domain or fragment) | 0.29 | – |
| LiBRC1.8 (C-terminal truncation of LiBRC1, Glu133 also removed, GB1 fusion) (domain or fragment) | 2.09 | – |
| LiBRC2.1 (LiBRC2 Gly154 to alanine, GB1 fusion) (domain or fragment) | 10.6 | – |

More lines, main results first:

| Kd [3] [µM] | Substance | also measured |
| --- | --- | --- |
| 8.7 | LiBRC1.11 (C-terminal truncation of LiBRC1 up until Gln129, GB1 fusion) (domain or fragment) | – |
| 0.39 | LiBRC1.7 (C-terminal truncation of LiBRC1, residues up to Arg134 removed, GB1 fusion) (domain or fragment) | – |
| 10.1 | LiBRC1.10 (C-terminal truncation of LiBRC1, Val131 also removed, GB1 fusion) (domain or fragment) | – |
